Assay [1] deals with soluble extracellular domain of EGFR (sEGFR) (UniProt P00533). Briefly: SPR competition: Fab11F8 added to 600 nM sEGFR, passed over immobilized EGF.
In assay [2] the target is isolated domain III of sEGFR (sEGFRd3) (UniProt P00533). Description: SPR (BIAcore 3000), sEGFRd3 passed over immobilized Fab11F8, equilibrium analysis.
The target in assay [3] is soluble extracellular domain of EGFR (sEGFR) (UniProt P00533). Description: SPR (BIAcore 3000), sEGFR passed over immobilized Fab11F8, equilibrium response, one-site Langmuir fit.

antibody 11F8 Fab fragment, sequence (VH): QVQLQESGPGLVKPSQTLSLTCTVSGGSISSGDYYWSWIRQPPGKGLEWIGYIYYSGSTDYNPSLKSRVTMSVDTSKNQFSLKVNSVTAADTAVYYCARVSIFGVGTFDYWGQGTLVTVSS
antibody 11F8 Fab fragment, sequence (VL): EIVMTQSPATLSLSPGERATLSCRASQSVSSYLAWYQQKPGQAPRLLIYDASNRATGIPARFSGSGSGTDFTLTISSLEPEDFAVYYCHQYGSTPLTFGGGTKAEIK

As to antibody 11F8 Fab fragment, the IC50 in assay [1] worked out at 100 nM. In addition, the Kd in assay [2] was determined as 1 nM; in assay [3], 3.3 nM.

As usually defined, the IC50 is the midpoint of a concentration-inhibition curve. Read a high IC50 as a need for much substance. The Kd is the equilibrium constant for the complex coming apart. Read a low Kd as a tighter complex.

The values are drawn from patent publication US20100086540A1.
